Bridges are numbered along the chain shown (N, C = ends). Where no end group is shown, it is not given here.
T1: HER4 (UniProt Q15303 26-651, limits assumed)
T1 construct: Called 'closely related; HER4'
T1 sequence (looked up): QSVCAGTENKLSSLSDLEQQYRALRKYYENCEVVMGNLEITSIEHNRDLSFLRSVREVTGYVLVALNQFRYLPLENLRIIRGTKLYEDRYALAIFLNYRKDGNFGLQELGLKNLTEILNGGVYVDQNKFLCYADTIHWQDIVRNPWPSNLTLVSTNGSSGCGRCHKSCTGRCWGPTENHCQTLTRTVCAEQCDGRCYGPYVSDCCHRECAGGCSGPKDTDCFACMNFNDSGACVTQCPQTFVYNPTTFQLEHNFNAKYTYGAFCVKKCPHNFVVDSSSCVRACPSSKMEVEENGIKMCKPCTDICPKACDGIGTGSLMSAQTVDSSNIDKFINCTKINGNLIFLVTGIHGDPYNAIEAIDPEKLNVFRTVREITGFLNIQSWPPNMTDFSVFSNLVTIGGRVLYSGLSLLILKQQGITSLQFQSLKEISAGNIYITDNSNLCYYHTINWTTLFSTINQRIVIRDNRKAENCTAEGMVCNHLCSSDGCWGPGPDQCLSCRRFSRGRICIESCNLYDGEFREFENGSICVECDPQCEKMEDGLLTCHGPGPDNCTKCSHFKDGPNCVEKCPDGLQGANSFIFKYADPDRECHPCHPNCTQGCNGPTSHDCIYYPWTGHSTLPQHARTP

B1: (1.1FI)2-Z (other)
chain: QVYESWGCIGPGCACLQACLGGGSGGQVYESWGCIGPGCACLQACL-{Z domain of protein A}
modifications: not fully specified; cysteine pairing not given here; also: fused to Z domain of protein A (not in chain)
notes: also called single chain dimer; 1.1FI repeated twice and fused to the Z domain of protein A
B2: 1.1FI-Fc (Fc fusion)
chain: QVYESWGCIGPGCACLQACLGGGSSG
modifications: not fully specified (C-terminus); cysteine pairing not given here; also: fused through linker to Fc of human IgG1 (not in chain)
notes: also called peptide 1.1.FI fused through a linker to Fc of human IgG1; Her2-Fc expression vector product; not shown: Fc portion of the human IgG1 (700 base pair fragment)
B3: phage clone 5.1 (peptide)
peptide: RSCADVASRCWEHCIT
modifications: not fully specified (C-terminus); cysteine pairing not given here; also: displayed on phage as pVIII fusion
notes: also called Pool 5 clone; not shown: linker and phage coat protein pVIII (polyvalent display)
B4: phage clone 7.1 (peptide)
peptide: CSWVLVQCGGEWWHCCGLGCGLVVNAC
modifications: not fully specified (C-terminus); printed as Cys-Ser-Trp-Val-Leu-Val-Gln-Cys-Gly-Gly-Glu-Trp-Trp-His-Cys-Cys-Gly-Leu-Gly-Cys-Gly-Leu-Val-Val-Asn-Ala-Cys; cysteine pairing not given here; also: displayed on phage as pVIII fusion
notes: also called Pool 7 clone; not shown: linker and phage coat protein pVIII (polyvalent display)
B5: Peptide HER201 (peptide)
peptide: YSFEGWGCIGPGCAYLFEGH
modifications: disulfide 8-13 (inferred)
notes: also called synthetic peptide of phage-clone 1.1.2
B6: Peptide HER212 (peptide)
peptide: QVYESWGCIGPGCACLQACL
modifications: disulfide 8-13, 15-19
notes: Present only as monomer by mass spectrometry; also called synthetic peptide of clone 1.1.FI
B7: phage clone 1.1 (peptide)
peptide: YEVEAWDCMGPGCANLFEAH
modifications: not fully specified (C-terminus); cysteine pairing not given here; also: displayed on phage as pVIII fusion
notes: also called Pool 1 clone; not shown: linker and phage coat protein pVIII (polyvalent display)
B8: 1.1.FI-Zb (biotinylated 1.1.FI-Z) (other)
chain: QVYESWGCIGPGCACLQACL
modifications: not fully specified (C-terminus); cysteine pairing not given here; also: biotinylated with NHS-LC-biotin, sites not given here, fused to Z domain of protein A (not in chain)

Tests used:
[1] = molecular target: T2, HER2 extracellular domain (HER2-ECD) (human, UniProt P04626 23-652); experiment: competition ELISA, block of 1.1.FI-Zb binding to immobilized HER2-ECD
T2 construct: extracellular domain; also called immobilized HER2; extracellular domain of Erb2
Experimental: Following a 1 h incubation the plate was washed with PBS-Tween and Strepavidin/HRP conjugate (Streptavidin-POD, Roche Molecular Biochemicals) was added for 30 min.

[2] = molecular target: T2, HER2 extracellular domain (HER2-ECD); experiment: phage ELISA, block of 1.1FI phage binding to immobilized HER2-ECD
Experimental: HER2-ECD was immobilized directly to Maxisorp plates (Nunc) in 50 mM ammonium bicarbonate, pH 9.3, using 5 μg/ml, overnight at 4° C. Wells were blocked using PBS containing 1% BSA (PBS-BSA) for 1 h at 25° C. […] The microtiter plate was washed with PBS containing 0.05% Tween20 (PBS-Tween) and the phage bound to HER2-ECD were detected with an anti-gVIII/HRP monoclonal antibody conjugate (Amersham Pharmacia Biotech).

HER3 = molecular target: T3, HER3 (UniProt P21860 20-643, limits assumed); experiment: phage binding assay on immobilized protein
T3 construct: Called 'closely related HER3'
T3 sequence (P21860 20-643 limits assumed): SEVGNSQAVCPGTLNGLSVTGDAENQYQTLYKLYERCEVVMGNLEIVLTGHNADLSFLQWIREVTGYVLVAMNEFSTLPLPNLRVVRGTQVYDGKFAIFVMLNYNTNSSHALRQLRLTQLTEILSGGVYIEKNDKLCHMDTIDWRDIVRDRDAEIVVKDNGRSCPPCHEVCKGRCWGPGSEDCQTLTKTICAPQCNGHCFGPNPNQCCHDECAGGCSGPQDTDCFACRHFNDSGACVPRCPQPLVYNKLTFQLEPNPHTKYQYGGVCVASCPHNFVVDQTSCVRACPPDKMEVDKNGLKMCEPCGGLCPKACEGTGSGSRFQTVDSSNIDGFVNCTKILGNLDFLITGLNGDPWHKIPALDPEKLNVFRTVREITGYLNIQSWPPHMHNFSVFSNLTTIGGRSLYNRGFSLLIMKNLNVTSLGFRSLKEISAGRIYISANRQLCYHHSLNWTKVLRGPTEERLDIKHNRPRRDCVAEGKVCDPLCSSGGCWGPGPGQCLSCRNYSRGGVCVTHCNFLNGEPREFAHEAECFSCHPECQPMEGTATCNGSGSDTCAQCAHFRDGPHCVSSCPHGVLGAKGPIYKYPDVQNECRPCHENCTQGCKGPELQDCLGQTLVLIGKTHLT

HER4 = molecular target: T1, HER4; experiment: phage binding assay on immobilized protein
BSA = molecular target: T4, BSA (UniProt P02769 25-607); experiment: phage binding assay on immobilized protein
T4 construct: Control coating protein; also called immobilized BSA
T4 sequence (P02769 25-607 limits assumed): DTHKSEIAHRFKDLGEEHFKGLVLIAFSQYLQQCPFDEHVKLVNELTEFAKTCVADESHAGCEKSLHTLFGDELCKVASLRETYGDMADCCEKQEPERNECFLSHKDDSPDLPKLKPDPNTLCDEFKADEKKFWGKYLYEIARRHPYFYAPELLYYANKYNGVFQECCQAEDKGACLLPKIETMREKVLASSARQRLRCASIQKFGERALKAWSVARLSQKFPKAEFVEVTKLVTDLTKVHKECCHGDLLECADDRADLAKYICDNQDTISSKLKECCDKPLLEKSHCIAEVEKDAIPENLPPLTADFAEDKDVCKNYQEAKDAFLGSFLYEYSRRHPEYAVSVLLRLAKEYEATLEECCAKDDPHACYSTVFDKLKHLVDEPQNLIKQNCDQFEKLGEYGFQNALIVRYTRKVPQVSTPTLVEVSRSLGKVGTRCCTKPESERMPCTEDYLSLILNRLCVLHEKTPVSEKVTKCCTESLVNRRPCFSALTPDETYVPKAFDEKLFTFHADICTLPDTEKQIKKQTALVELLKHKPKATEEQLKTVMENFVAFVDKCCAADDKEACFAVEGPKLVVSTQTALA

[3] = molecular target: T2, HER2 extracellular domain (HER2-ECD); experiment: phage binding assay, immobilized HER2-ECD
[4] = molecular target: T2, HER2 extracellular domain (HER2-ECD); experiment: direct binding ELISA, immobilized HER2-ECD, streptavidin-HRP detection

Binder | IC50 [1] | binding result (HER3) | binding result (HER4) | binding result (BSA) | binding result [3] | other results
B1 | 20 nM | – | – | – | – | –
B2 | – | – | – | – | – | IC50 [2]: 3 nM
B3 | – | no binding | no binding | no binding | binds | –
B4 | – | no binding | no binding | no binding | binds | –
B5 | 300 nM | – | – | – | – | –
B6 | 9000 nM | – | – | – | – | –
B7 | – | no binding | no binding | no binding | binds | –
B8 | – | – | – | – | – | EC50 [4]: 2 nM

Reference: patent US20030171278A1 (Genentech, published 2003)
